The target of assay [1] is His-tagged OsTFIIAγ1, labelled with NT-647 (rice (Oryza sativa)). Briefly: MST; […]; 50 mM Tris-HCl pH 7.8, 150 mM NaCl, 10 mM MgCl2, 0.05% Tween-20; 25°C; […].
Assay [2] addresses His-tagged Xa5 (OsTFIIAγ5), labelled with NT-647 (rice (Oryza sativa)) (UniProt A2XZI2). Described as above.

For orientation: Kd means the concentration at which binding is half-saturated. The low end stands for higher affinity, the high end for lower affinity. As to His-tagged AvrXa7 (natural protein), the Kd in assay [1] and in assay [2] was less than 1000 nM in each case.
On to “His-tagged AvrXa27 (from UniProt A0A0K0GNW2 1-1136) (natural protein)”, for which the Kd in assay [1] is less than 1000 nM.
For the substance “His-tagged PthXo1 (from UniProt B2SU53 1-1373) (natural protein)”, the Kd in assay [1] is less than 1000 nM.

For the origin of these results see article PMC6638009.
